Data as given in patent publication US20230071371A1 (Scripps Research, published 2023).
Read-outs that look alike come from different tables or passages of the source. Bridges are numbered along the chain shown (N, C = ends). Where no end group is shown, it is not given here. [ ]: non-standard residue; d: D form. NMeR = CN[C@@H](CCCNC(=N)N)C(=O)O; staple K20 = not defined here; staple K4 = not defined here; staple K5 = not defined here; staple K6 = not defined here; staple K7 = not defined here; staple K8 = not defined here; staple K9 = not defined here; Nle = CCCC[C@H](N)C(=O)O; L1 = not defined here; L3 = not defined here; L4 = not defined here; L5 = not defined here; Aib = CC(C)(N)C(=O)O

T1: human GIPR (human, UniProt P48546 22-466)
T1 sequence (looked up): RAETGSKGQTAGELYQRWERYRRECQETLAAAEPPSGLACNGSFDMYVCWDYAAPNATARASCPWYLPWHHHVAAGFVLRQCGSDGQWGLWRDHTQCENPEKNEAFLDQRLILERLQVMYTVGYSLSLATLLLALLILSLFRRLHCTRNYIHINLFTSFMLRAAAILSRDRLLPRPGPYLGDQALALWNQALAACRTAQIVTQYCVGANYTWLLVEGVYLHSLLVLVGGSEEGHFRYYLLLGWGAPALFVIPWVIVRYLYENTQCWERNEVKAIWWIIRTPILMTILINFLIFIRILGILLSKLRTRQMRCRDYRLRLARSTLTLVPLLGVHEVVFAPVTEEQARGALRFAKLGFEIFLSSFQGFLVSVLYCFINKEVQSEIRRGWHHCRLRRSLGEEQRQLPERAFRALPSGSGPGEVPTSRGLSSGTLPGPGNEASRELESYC

T2: GPR10 (UniProt P49683 1-370, limits assumed)
T2 sequence (looked up): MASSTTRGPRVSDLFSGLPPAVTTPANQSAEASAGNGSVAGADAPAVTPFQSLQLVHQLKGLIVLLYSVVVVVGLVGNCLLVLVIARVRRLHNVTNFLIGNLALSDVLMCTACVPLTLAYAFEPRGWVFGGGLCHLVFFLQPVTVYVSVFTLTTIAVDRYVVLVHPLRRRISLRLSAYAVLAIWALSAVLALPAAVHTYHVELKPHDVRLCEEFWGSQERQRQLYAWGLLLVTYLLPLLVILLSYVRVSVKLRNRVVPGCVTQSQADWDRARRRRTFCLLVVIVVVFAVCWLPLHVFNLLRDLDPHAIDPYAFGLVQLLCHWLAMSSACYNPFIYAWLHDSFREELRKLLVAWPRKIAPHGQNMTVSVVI


Key:
Assay in all cases: cell-based or functional assay
human GLP-1R = human GLP-1R (human, UniProt P43220 24-463)
human GIPR = target: T1, human GIPR
GPR10 [1] = target: T2, GPR10
GPR10 [2] = target: T2, GPR10; remark: listed apart in the source

| Binder | EC50 cAMP 0% FBS (human GLP-1R) [nM] | EC50 cAMP 0% FBS (human GIPR) [nM] | GPR10 EC50 (GPR10 [1]) [nM] | GPR10 EC50 (GPR10 [2]) [nM] |
| --- | --- | --- | --- | --- |
| Y[Aib]EGTFTSDYSIYLDKKAQ[Aib]AFVKWLIAQGPSSGAPPPS (linker 17-24 via staple K5; reading uncertain) [Conjugate 163] | 0.24 | 0.05 | – | – |
| YXEGTFTSDYSIYLDKKAAXEFVKWLLAGGPSSGAPPPS (staple K5 on Lys 17, 24; Aib 2, 20) [Conjugate 139] | 0.061 | 0.0026 | – | – |
| YXEGTFTSDYSIYLDKKAAXEFVKWLLAGGPSSGAPPPS (staple K4 on Lys 17, 24; Aib 2, 20) [Conjugate 140] | 0.034 | 0.0028 | – | – |
| Y[Aib]EGTFTSDYSIYLDKKAA[Aib]EFVKWLLAGGPSSGAPPPS (linker 17-24 via staple K20; reading uncertain) [Conjugate 149] | 0.05 | 0.01 | – | – |
| Y[Aib]EGTFTSDYSIYLDKKAA[Aib]EFVKWLLAGGPSSGAPPPS (linker 17-24 via staple K7; reading uncertain) [Conjugate 150] | 0.06 | 0.02 | – | – |
| Y[Aib]EGTFTSDYSIYLDKKAQ[Aib]AFVKWLIAQGPSSGAPPPS (linker 17-24 via staple K8; reading uncertain) [Conjugate 161] | 0.4 | 0.01 | – | – |
| Y[Aib]EGTFTSDYSIYKDKQAA[Aib]KFKNWLKAGGPSSGAPPPS (linker 23-27 via staple K20; reading uncertain) [Conjugate 157] | 16.4 | – | – | – |
| Y[Aib]EGTFTSDYSIYKDKQAA[Aib]KFVNWLLAGGPSSGAPPPS (linker 14-21 via staple K7; reading uncertain) [Conjugate 154] | 0.03 | 0.02 | – | – |
| Y[Aib]EGTFTSDYSIYKDKQAA[Aib]KFVNWLLAGGPSSGAPPPS (linker 14-21 via staple K9; reading uncertain) [Conjugate 144] | 0.012 | 0.0022 | – | – |
| Y[Aib]EGTFTSDYSIYLDKKAQ[Aib]AFVKWLIAQGPSSGAPPPS (linker 17-24 via staple K4; reading uncertain) [Conjugate 146] | 0.11 | 0.03 | – | – |
| Y[Aib]EGTFTSDYSIYLDKKAQ[Aib]AFVKWLIAQGPSSGAPPPS (linker 17-24 via staple K6; reading uncertain) [Conjugate 160] | 0.03 | 7.3 | – | – |
| Y[Aib]EGTFTSDYSIYLDKKAA[Aib]EFVKWLLAGGPSSGAPPPS (linker 17-24 via staple K9; reading uncertain) [Conjugate 143] | 0.068 | 0.002 | – | – |
| Y[Aib]EGTFTSDYSIYKDKQAA[Aib]KFVNWLLAGGPSSGAPPPS (linker 14-21 via staple K20; reading uncertain) [Conjugate 153] | 0.05 | 0.01 | – | – |
| Y[Aib]EGTFTSDYSIYKDKQAA[Aib]KFKNWLKAGGPSSGAPPPS (linker 23-27 via staple K8; reading uncertain) [Conjugate 156] | 14.6 | 2.82 | – | – |
| Y[Aib]EGTFTSDYSIYLDKKAA[Aib]EFVKWLLAGGPSSGAPPPS (linker 17-24 via staple K8; reading uncertain) [Conjugate 148] | 0.46 | 0.03 | – | – |
| SRAHQCSMETRTCDINPAWYTGRGIRPVGRF-NH2 (linker 6-13 via L3; reading uncertain) [Conjugate 236] | – | – | 13 | 13 |

| Binder | EC50 cAMP 0% FBS (human GLP-1R) [nM] | EC50 cAMP 0% FBS (human GIPR) [nM] | GPR10 EC50 (GPR10 [1]) [nM] | GPR10 EC50 (GPR10 [2]) [nM] |
| --- | --- | --- | --- | --- |
| Y[Aib]EGTFTSDYSIYKDKQAA[Aib]KFKNWLKAGGPSSGAPPPS (linker 23-27 via staple K6; reading uncertain) [Conjugate 155] | 4.08 | 1.66 | – | – |
| Y[Aib]EGTFTSDYSIYKDKQAA[Aib]KFKNWLKAGGPSSGAPPPS (linker 23-27 via staple K5; reading uncertain) [Conjugate 158] | 98.3 | 30.5 | – | – |
| Y[Aib]EGTFTSDYSIYLDKKAQ[Aib]AFVKWLIAQGPSSGAPPPS (linker 17-24 via staple K20; reading uncertain) [Conjugate 162] | 0.05 | 0.02 | – | – |
| Y[Aib]EGTFTSDYSIYKDKQAA[Aib]KFVNWLLAGGPSSGAPPPS (linker 14-21 via staple K6; reading uncertain) [Conjugate 151] | 0.03 | 0.02 | – | – |
| SRAHQCS[Nle]ETRTCDINPAWYTGRGIRPVG[NMeR]F-NH2 (linker 6-13 via L5; reading uncertain) [Conjugate 266] | – | – | 1100 | – |
| Y[Aib]EGTFTSDYSIYKDKQAA[Aib]KFKNWLKAGGPSSGAPPPS (linker 23-27 via staple K9; reading uncertain) [Conjugate 159] | 1180 | 0.0312 | – | – |
| Y[Aib]EGTFTSDYSIYKDKQAA[Aib]KFKNWLKAGGPSSGAPPPS (linker 23-27 via staple K4; not fully specified; reading uncertain) [Conjugate 145] | 61.4 | – | – | – |
| Y[Aib]EGTFTSDYSIYLDKKAQ[Aib]AFVKWLIAQGPSSGAPPPS (linker 17-24 via staple K9; reading uncertain) [Conjugate 164] | 0.14 | 68.3 | – | – |
| Y[Aib]EGTFTSDYSIYLDKKAA[Aib]EFVKWLLAGGPSSGAPPPS (linker 17-24 via staple K6; reading uncertain) [Conjugate 147] | 0.07 | 0.02 | – | – |
| SRAHQCSMETRTCDINPAWYTGRGIRPVGRF-NH2 (cysteine pairing not given here) [SEQ ID NO 90] | – | – | 29 | 29 |
| SRAHQCSMETRTCDINPAWYTGRGIRPVGRF-NH2 (linker 6-13 via L5; reading uncertain) [Conjugate 238] | – | – | 260 | 260 |
| Y[Aib]EGTFTSDYSIYKDKQAA[Aib]KFVNWLLAGGPSSGAPPPS (linker 14-21 via staple K8; not fully specified; reading uncertain) [Conjugate 152] | – | 0.05 | – | – |
| SRAHQCSMETRTCDINPAWYTGRGIRPVGRF-NH2 (linker 6-13 via L4; reading uncertain) [Conjugate 237] | – | – | 80 | 80 |
| SRAHQHSMETRTPDINPAWYTGRGIRPVGRF-NH2 [SEQ ID NO 107] | – | – | 12 | 12 |
| SRAHQCSMETRTCDINPAWYTGRGIRPVGRF-NH2 (linker 6-13 via L1; reading uncertain) [Conjugate 226] | – | – | 20 | 20 |
